The record followed here is publication PMC2888147.

In the assay the target is His-tagged KCNE1 C-terminus (E1C) (human) (UniProt P15382). In words: SEC.

As usually defined, the stoichiometry N is a count of units in the complex or per binding partner. The substance “His-tagged KCNE1 C-terminus (E1C) (from UniProt P15382 67-129) (domain or fragment)” displayed a stoichiometry N of 2.
